The text below walks through data of patent US20170233490A1 (Hoffmann-La Roche, published 2017).

In general, Kd refers to the equilibrium constant for the complex coming apart. A higher Kd goes with lower affinity. What is called koff is a measure of how fast the partners let go of each other. A high value points to fast dissociation. As a reminder, the kon is the rate constant with which the complex forms.

Test [1] deals with T1, HER3 ECD-HRG complex (human, UniProt P21860 20-643).
T1 construct: HER3 ECD preincubated with a 3- to 6-fold molar excess of Heregulin ('open' conformation); biotinylated Her3-ECD in the ribosome display; also called HER3-ECD/HRG1β
The test can be described thus: SPR Biacore 3000, 37 C. (Surface plasmon resonance follows binding to a sensor surface in real time, without labels.)

For test [2], the target named is T2, human HER4 Extracellular Domain (ECD) (human, UniProt Q15303 26-651).
T2 construct: also called Her4 ECD; HER4-ECD
T2 sequence: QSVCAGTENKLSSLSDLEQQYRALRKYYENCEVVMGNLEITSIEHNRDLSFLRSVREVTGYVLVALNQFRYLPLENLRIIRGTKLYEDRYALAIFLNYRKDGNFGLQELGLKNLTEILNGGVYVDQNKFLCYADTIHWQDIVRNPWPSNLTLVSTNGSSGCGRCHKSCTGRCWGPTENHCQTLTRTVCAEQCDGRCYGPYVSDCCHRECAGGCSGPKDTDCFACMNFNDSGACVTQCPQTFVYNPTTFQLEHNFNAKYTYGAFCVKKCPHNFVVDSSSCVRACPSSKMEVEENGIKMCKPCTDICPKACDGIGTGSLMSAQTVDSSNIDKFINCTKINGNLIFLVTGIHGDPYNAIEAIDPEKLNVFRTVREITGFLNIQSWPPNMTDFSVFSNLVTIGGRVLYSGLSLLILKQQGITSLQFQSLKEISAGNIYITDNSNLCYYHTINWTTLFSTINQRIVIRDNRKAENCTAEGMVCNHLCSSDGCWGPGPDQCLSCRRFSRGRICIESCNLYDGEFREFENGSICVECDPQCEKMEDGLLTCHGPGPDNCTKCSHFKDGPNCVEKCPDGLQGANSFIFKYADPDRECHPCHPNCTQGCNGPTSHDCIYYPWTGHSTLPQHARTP
The experiment in a line: SPR Biacore 3000, 37 C.

For a further test, the target named is T3, HER4 ECD-HRG complex (human, UniProt Q15303 26-651).
T3 construct: HER4 ECD preincubated with a 5-fold molar excess of Heregulin
T3 sequence 1: T2 sequence
T3 sequence 2: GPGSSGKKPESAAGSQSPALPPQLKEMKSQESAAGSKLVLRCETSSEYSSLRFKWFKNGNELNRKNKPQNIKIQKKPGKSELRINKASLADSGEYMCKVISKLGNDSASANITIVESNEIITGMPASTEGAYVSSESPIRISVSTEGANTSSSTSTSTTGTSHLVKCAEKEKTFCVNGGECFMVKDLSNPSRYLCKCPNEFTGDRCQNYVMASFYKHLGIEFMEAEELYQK
The test can be described thus: SPR Biacore 3000, 37 C.

The target of test [3] is T4, human HER3 Extracellular Domain (ECD) (human, UniProt P21860 20-643).
T4 construct: human recombinant, 68 kDa; 'closed' conformation without ligand; also called Her3 ECD; Her-3 ECD
The test can be described thus: SPR Biacore 3000, 37 C.

Test [4] deals with T4, human HER3 Extracellular Domain (ECD). The test can be described thus: SPR (Biacore) sensorgram overlay; the legend gives 100 nM, antibody * Her-3 ECD interaction without Heregulin; buffer reference (curve 5) stays at 0 RU.
In test [5] the target is T1, HER3 ECD-HRG complex. The experiment in a line: SPR (Biacore B3000, 25 °C), antibody captured by RAM-Fcγ; 90 nM Heregulin*Her-3 ECD complex injected. The procedure: A CMS series sensor was mounted into the system and was normalized in HBS-ET buffer (10 mM HEPES pH 7.4, 150 mM NaCl, 3 mM EDTA, 0.005% w/v Tween 20) according to the manufacturer's instructions. The sample buffer was the system buffer supplemented with 1 mg/ml CMD (Carboxymethyldextran). The system operated at 25° C. 10000 RU RAM-Fcγ (relative units of Fcγ-fragment Rabbit Anti-Mouse IgG/Jackson Laboratories) were immobilized according to the manufacturer's instructions using EDC/NHS chemistry on all flow cells. The sensor was deactivated using 1M ethanolamine. Analytes in solution were injected at 100 μl/min at different concentration steps of 0 nM, 1.1 nM, 3.7 nM, 11.1 nM, 33.1 nM and 90 nM for 2 min. The dissociation was monitored for 5 min. Acidic regeneration of the sensor surface was achieved using three consecutive injections of 10 mM Glycine pH 1.7 at 30 μl/min for 60 sec. Kinetic data were evaluated according to a Langmuir fit.

The target in test [6] is T2, human HER4 Extracellular Domain (ECD). The experiment in a line: stated in the epitope binning example.

B1: humanized variant VH-A/VL-D of anti-HER3 antibody M-05-74 (antibody, V domains shown)
VH: QVQLVQSGAELKKPGASVKVSCRTSGYTLTDYWIHWVRQAPGQGLEWMGYINPYTGYTESNQKFKDRVAMTRDASINTAYMELTSLRSDDTAVYYCARPYYYGDYWGQGTLVTVSS
VL: EIVLTQSPATLSLSPGERATLSCSASSSVSYMHWFQQKPGQPPRLLIYSTSNLASGIPARFSGSGSGTDFTLTISSLEPEDFAVYYCQQRSSYPFTFGGGTKVEIK
notes: also called humanized DIB-74
In the test with HER3 ECD-HRG complex [1], B1 displayed a Kd of 10 nM, an MR of 0.8, a koff of 0.002 s⁻¹ and a kon of 190000 M⁻¹ s⁻¹. Also, the t/2diss with HER3 ECD-HRG complex [1] turned out to be 6 min. In addition, in test [2], the binding result is recorded as “no binding”. In the test with HER4 ECD-HRG complex, this molecule registered a Kd of 211 nM, an MR of 0.8, a koff of 0.038 s⁻¹ and a kon of 180000 M⁻¹ s⁻¹. This molecule had a t/2diss in the test with HER4 ECD-HRG complex of 0.3 min. Moreover, in test [3], binding was put at a Kd of 23 nM, the MR turned out to be 0.7, the koff was 0.00044 s⁻¹ and the kon is 19000 M⁻¹ s⁻¹. Also, the t/2diss in test [3] was determined as 26 min.

B2: anti-HER3 antibody M-08-11 (antibody, V domains shown)
VH: QAYLQQSGAELMRPGASVRMSCQASGYTFTSYTIHWLKQTPRQGLEWIGAIYPRNGDFSYNQKFKDKASLTVDTSSSTAYMHLSSLTSEDSAVYFCARTINYGDWFAYWGQGTLVTVSA
VL: DIQMIQSPASLFVSEGETVIITCRASENIYSNLAWYHQKKGKSPQVLVYAAIKLADGVPLRFSGSGSGTQFSLKINSLQSEDFGSYYCQHFWGPPYTFGSGTNLEIK
notes: also called M-011; <Her3> M-08-11
For the molecule B2, the binding result was “binds” in test [4], “binds” with HER3 ECD-HRG complex [5] and “no binding” in test [6].
